Source: patent US20190240316A1

Legend:
[1] = molecular target: RSV strain A2 F protein, pre-fusion-stabilized DS-Cav1 (human respiratory syncytial virus subgroup A strain A2) (UniProt P03420); assay: ELISA on coated antigen
[2] = molecular target: RSV strain A2 F protein, pre-fusion-stabilized SC-TM (human respiratory syncytial virus strain A2) (UniProt P03420); assay: ELISA on coated antigen

Substance	EC50 [1] [µg/mL]	EC50 [2] [µg/mL]
mAb D25 (antibody)	0.089	–
motavizumab (antibody)	0.037	0.028
